US20210008161A1, “METHODS AND COMPOSITIONS FOR IMPROVED HOMOLOGY DIRECTED REPAIR” (CRISPR THERAPEUTICS AG, priority 2019, published 2021)

Tested on: CD34-expressing LT-HSPCs
Experiment: Indel formation at HBB locus by TIDE analysis
Assay type: cell-based, human
Details: RNP of Cas9 and R02 gRNA only; TIDE; FIG. 11
Experimental: Editing efficiency at the HBB locus was evaluated by measuring indel formation by TIDE analysis. […] This group had 1.7-fold reduction in INDEL frequency relative to cells treated with RNP+AAV,

B1: R02 gRNA: sgRNA targeting the HBB locus (SEQ ID NO: 17), used as RNP with Cas9 (nucleic acid)
guide: CNUNUNGCCCCACAGGGCAGUAAGUUUUAGAGCUAGAAAUAGCAAGUUAAAAUAAGGCUAGUCCGUUAUCAACUUGAAAAAGUGGCACCGAGUCGGUGCUNUNUNU
modifications: Synthetic gRNA-related, HBB sgRNA; modified_base (1)..(6) every c and u is a 2′ O-methyl phosphorothioate nucleotide; (2)..(2) n is a phosphorothioate nucleotide; (4)..(4) n is a phosphorothioate nucleotide; (6)..(6) n is a phosphorothioate nucleotide; modified_base (100)..(104) every u is a 2′ O-methyl phosphorothioate nucleotide; (101)..(101) n is a phosphorothioate nucleotide; (103)..(103) n is
indel formation: 94%
